The values below come from patent US20220396632A1 (VERSEAU THERAPEUTICS, published 2022).

Assay [1] addresses T1, Biotin PSGL-1(42-62) E56A peptide (C-terminal Lys-biotin).
T1 peptide: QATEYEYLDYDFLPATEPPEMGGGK
Briefly: alanine-scan ELISA, streptavidin-immobilized biotin peptide [cont.]. Background: An ELISA detects its analyte on a solid surface through an enzyme-linked reagent.

The target of assay [2] is T2, Biotin PSGL-1(42-62) F53A peptide (C-terminal Lys-biotin).
T2 peptide: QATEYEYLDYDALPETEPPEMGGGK
The assay is described as above.

The target of assay [3] is T3, Biotin PSGL-1(42-62) E45A peptide (C-terminal Lys-biotin).
T3 peptide: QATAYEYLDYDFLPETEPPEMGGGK
Described as above.

A further assay concerns the target T4, E47A (C-terminal Lys-biotin).
T4 construct: alanine-scan peptide; also called Biotin PSGL-1(42-62) E47A peptide; 47E
T4 peptide: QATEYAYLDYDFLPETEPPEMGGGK
The description is as above.

For the next assay, the target named is T5, Y48A (C-terminal Lys-biotin).
T5 construct: alanine-scan peptide; also called Biotin PSGL-1(42-62) Y48A peptide; 48Y
T5 peptide: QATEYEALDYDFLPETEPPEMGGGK
Described as above.

Another assay deals with T6, M62A (C-terminal Lys-biotin).
T6 construct: alanine-scan peptide; also called Biotin PSGL-1(42-62) M62A peptide; 62M
T6 peptide: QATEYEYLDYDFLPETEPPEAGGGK
The assay is described as above.

Assay [4] concerns the target T7, Biotin Y46,48,51(SO3) PSGL-1(42-62) peptide (human, sulfotyrosine at Y46, Y48 and Y51; C-terminal Lys-biotin).
T7 construct: also called fully sulfated N-terminal PSGL-1 peptide
T7 peptide: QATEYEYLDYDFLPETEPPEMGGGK
Briefly: ELISA, plate-bound mAb captures biotin 3 x sY peptide. As to the method:
A typical ELISA for N-terminal PSGL-1 reactive humanized mAbs binding to Y_{46,48,51}(SO₃) PSGL-1₍₄₂₋₆₂₎ involved coating high binding half-well plates (Corning Cat. #3690) with 3 ug/mL/25 ul per well of the mAbs or with an isotype hG4 control in PBS, pH 7.4, overnight at 4° C. […] Biotinylated Y_{46,48,51}(SO₃) PSGL-1₍₄₂₋₆₂₎ was added (25 ul per well) in duplicate at 2.8 uM in assay buffer (blocking buffer containing 0.05% tween 20) and serially diluted into test and control (just blocked) wells, and the plate incubated for 45 min at 37° C. The plate was washed ×3 and an appropriate HRP-conjugated streptavidin was added (25 ul per well; Jackson Immunoresearch, Cat. #016-030-084) and the plate was incubated for 45 min at 37° C. […] For each antibody, an EC50 value was determined from sigmoidal fitted peptide titration curve.

Assay [5] has as its target T8, Biotin sY51 PSGL-1(42-62) peptide (human, sulfotyrosine at Y51; C-terminal Lys-biotin).
T8 construct: also called Y51(SO3) PSGL-1(42-62)
T8 peptide: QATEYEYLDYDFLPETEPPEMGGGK
As to the kind of experiment: ELISA, plate-bound peptide.

The next assay deals with T9, 42-80 (C-terminal Lys-biotin).
T9 construct: also called Biotin PSGL-1(42-80) peptide
T9 peptide: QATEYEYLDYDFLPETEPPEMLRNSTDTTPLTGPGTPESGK
Briefly: ELISA, streptavidin-immobilized biotin peptide. As to the method:
(§1) A typical ELISA experiment involved binding of a single concentration or serially diluted mAb in assay buffer (3% BSA in PBS containing 0.05% Tween®20, pH 7.4) onto BSA blocked high binding microtiter plate half-wells (Corning Cat. #3690), which contained PSGL-1 protein or streptavidin-immobilized biotin peptide. After incubation for 45 min. at 37° C., the plate was washed 3 times with wash buffer (PBS containing 0.05% Tween®20, pH 7.4), and an appropriate HRP-conjugated secondary antibody added (25 ul/well) (HRP goat anti-mouse or anti-human IgG). After 45 min. incubation at 37° C., the plate was washed and antibody bound to plate-immobilized target was determined at A450 nm using HRP substrate (3,3′5,5′-tetramethylbenzidine (TMB)). For each antibody, duplicate values were averaged and assay background subtracted.

Assay [6] addresses T10, Biotin PSGL-1(42-62) peptide, unmodified (human, C-terminal Lys-biotin).
T10 construct: Residues 42-62 followed by GGGK-biotin; also called WT; wild-type
T10 peptide: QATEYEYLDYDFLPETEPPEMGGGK
As to the kind of experiment: ELISA, streptavidin-immobilized biotin peptide. As to the method: as §1

Assay [7] deals with T11, Biotin PSGL-1(290-310) peptide (human, N-terminal acetyl; C-terminal Lys-biotin).
T11 peptide: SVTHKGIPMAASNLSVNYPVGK
As to the kind of experiment: ELISA, streptavidin-immobilized biotin peptide. As to the method:
as §1

The target of assay [8] is T12, PSGL-1 endogenously expressed on HL-60 cells (UniProt Q14242 42-412).
T12 construct: whole, on cells
T12 sequence (looked up): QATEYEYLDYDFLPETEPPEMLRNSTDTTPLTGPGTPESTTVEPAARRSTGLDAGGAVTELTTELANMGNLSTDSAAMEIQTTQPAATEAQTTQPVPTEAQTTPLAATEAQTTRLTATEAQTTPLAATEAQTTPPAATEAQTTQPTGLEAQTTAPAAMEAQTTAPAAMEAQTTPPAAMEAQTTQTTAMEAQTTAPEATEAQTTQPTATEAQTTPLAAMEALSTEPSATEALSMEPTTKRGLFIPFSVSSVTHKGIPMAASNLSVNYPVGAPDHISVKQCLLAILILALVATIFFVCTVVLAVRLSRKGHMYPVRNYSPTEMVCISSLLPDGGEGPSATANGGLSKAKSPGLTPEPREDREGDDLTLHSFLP
Briefly: flow cytometry on HL-60 cells; against parent 19L04. As to the method:
A typical flow cytometry assay was performed by resuspending HL-60 cells in FACS buffer (5% FBS and 0.05% Sodium Azide in PBS, pH 7.2) on ice, pelleting cells by centrifugation at 500×g for 3 min, washing cells with FACS buffer, and then blocking Fc receptors on the cells with Fc block (human TruStain FcX™, BioLegend Cat. #422302) on ice for 10 min. After washing, 50,000 cells/50 ul in FACS buffer was added to each well of a 96-well round bottomed plate (Costar, Cat. #3797), and 50 ul of serially diluted (0.06 nM-1.0 uM) test or isotype control antibody was added into duplicate wells. The plate was covered and incubated on ice for 1 h. After washing, Phycoerythrin (PE) conjugated anti-human IgG secondary antibody (Abcam; Cat. #ab99825) was added to each well and the plate incubated in the dark on ice for 30 min. After washing, the cells were fixed (1% paraformaldhyde).
(In general: In flow cytometry, cells or beads pass a laser one at a time.)

Positions count from the first letter of the chain named.

B1: 9F9 (antibody, V domains shown)
VH: EVQLVETGGGLVQPKGSLKLSCAASGFTFNTNAMNWVRQAPGKGLEWVARIRSKSNNYATYYADSVKDRFTISRDDTQSMIYLQMNNLKTEDTGMYYCVRGGSYWYFDVWGAGTTVTVSS
VL: DVLMTQTPLSLPVSLGDQASISCRSSQSIVNSNGNTYLEWYLQKPGQSPKLLIYKVSNRFSGVPDRFSGSGSGTDFTLKISRVEAEDLGVYYCFQGSHVPWTFGGGTKLEIK
notes: Control anti-PSGL-1 mAb, recombinant; only variable domains given; also called 9F6
B1: the binding result (in assay [1]; in assay [2]; in assay [3]; in the assay with E47A; with Y48A; with M62A) was “binds” in each case.

B2: 18F02 (antibody, V domains shown)
VH: QVQLQQPGAELVKPGASVKLSCKASGYTFTSYWMHWVKQRPGQGLEWIGMIHPNSGRTNYNEKFKSKATLTVDKSSSTAYMQLSSLTSEDSAVYYCARSDYWGQGTTLTVSS
VL: DIVMTQAAFSNPVTLGTSASISCRSSKSLLHSDGITYLYWFLQRPGQSPQLLIYRMSNLASGVPDRFSGSGSGTDFTLRISRVEAEDVGVYYCAQMLEFPRTFGGGTKLEIK
notes: From mouse immunisation; only variable domains given
For orientation: EC50 means the concentration giving half of the maximal effect. As to B2, in assay [4], the EC50 was found to be 70 nM.

B3: 20I15 (antibody, V domains shown)
VH: EVKLVESGGGLVQPGGSLSLSCAASGFTFTDYYMSWVRQPPGKALEWLGFIRNKANGYTTEYSASVKGRFTISRDNSQSILYLQMNALRAEDSATYYCARTYLRRGYFDVWGTGTTVTVSS
VL: DIVLTQSPASLAVSLGQRATISCRASKSVSTSGYSYMHWFQQKPGQPPKLLIYLASNLESGVPARFSGSGSGTDFTLNIHPVEEEDAATYYCQHSRELPLTFGAGTKLELK
notes: From mouse immunisation; only variable domains given; also called 20115
Regarding B3, the “fold weaker binding than to the peptide with all 3 sulfated tyrosines” value in assay [5] was roughly 300 fold.

B4: 16E17 (antibody, V domains shown)
VH: QIQLVQSGPELKKPGETVKISCKASGYAFTTYGMSWVKQAPGKGLKWMGWINTYSGVPKYADDFKGRFAFSLETSASTAYLHINNLKNEDTATYFCGRHYYGSSYFDYWGQGTTLTVSS
VL: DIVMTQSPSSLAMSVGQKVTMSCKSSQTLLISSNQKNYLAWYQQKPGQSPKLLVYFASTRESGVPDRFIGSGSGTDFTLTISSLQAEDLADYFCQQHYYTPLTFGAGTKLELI
notes: as for B2
In the case of B4, the binding result (in the assay with 42-80; in assay [6]; in assay [7]) was “no binding (tested: 10 nM)” each time.

B5: 19L04 (antibody, IgG4, V domains shown)
VH: B4 VH with A28T, K59T, H82Q, N88I, G97A, S104H
VL: DIMMTQSPSSLAMSVGQKVTLRCKSSQSLLNSSNQKNYLAWYQQKPGQSPKLLVYFASTRESGVPVRFIGSGSGTDFTLTISSMQAEDLADYFCQQHYFSPLTFGAGTKLELK
notes: as for B2
Regarding B5, the “HL-60 EC50 (normalized)” value in assay [8] is 1 fold.
